The results in this text go back to patent publication US20230277625A1 (SIMCHA IL 18, published 2023).

The labels stand for the following.
T1: IL-18 receptor (IL-18Rα / IL-18Rβ heterodimer) on HEK-Blue IL-18 reporter cells (UniProt Q13478 19-541; O95256 20-599, limits assumed)
T1 sequence (looked up) 1: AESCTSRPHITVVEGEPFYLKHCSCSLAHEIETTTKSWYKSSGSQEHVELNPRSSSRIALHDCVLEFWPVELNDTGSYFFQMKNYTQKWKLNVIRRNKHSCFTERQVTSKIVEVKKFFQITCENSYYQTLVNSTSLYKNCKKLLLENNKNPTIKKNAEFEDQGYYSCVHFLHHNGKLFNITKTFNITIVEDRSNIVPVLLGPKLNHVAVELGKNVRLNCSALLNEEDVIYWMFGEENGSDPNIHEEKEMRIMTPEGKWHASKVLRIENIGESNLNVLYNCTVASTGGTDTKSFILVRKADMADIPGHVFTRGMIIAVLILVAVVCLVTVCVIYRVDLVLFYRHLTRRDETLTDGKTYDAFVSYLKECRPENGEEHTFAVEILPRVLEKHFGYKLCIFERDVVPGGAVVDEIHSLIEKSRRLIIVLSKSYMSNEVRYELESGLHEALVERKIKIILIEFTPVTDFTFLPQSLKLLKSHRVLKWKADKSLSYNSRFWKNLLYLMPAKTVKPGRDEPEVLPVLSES
T1 sequence (looked up) 2: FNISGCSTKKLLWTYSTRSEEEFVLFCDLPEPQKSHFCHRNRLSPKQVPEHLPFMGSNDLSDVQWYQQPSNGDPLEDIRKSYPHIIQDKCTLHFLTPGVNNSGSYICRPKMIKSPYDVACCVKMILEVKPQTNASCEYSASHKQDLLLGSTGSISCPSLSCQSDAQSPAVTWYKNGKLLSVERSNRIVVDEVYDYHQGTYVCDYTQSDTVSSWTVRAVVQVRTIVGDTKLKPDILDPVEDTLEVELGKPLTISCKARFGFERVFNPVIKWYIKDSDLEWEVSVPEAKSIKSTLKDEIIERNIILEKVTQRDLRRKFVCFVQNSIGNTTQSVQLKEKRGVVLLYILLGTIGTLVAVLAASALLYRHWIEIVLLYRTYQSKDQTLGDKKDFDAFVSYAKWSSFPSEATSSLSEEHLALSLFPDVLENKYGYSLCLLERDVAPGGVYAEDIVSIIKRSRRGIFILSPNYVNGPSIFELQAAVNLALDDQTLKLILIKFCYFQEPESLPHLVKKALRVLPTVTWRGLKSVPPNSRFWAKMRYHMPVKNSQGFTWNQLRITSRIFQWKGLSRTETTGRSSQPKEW

T2: Human IL-18BP (amino acids 31-194), biotinylated (human, UniProt O95998 31-194, biotin on the AviTag (BirA ligase) where used biotinylated)
T2 construct: Soluble decoy receptor; also called hIL-18BP; recombinant IL-18BP
T2 sequence: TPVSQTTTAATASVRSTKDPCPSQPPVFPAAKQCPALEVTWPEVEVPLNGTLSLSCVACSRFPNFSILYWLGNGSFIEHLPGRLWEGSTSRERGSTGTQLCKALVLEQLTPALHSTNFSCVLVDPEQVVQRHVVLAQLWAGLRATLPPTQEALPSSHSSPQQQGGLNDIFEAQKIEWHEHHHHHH

B1: SEQ ID NO: 6 (SEQ ID NO: 89 plus C38S/C68S) (ligand)
chain: YFGKLESKLSVIRNLNDQVLFIDQGNRPLFEDMTDSDSRDNAPRTIFIISKYSDSLARGLAVTISVKSEKISTLSCENKIISFKEMNPPDNIKDTKSDIIFFQRDVPGHSRKMQFESSSYEGYFLACEKERDLFKLILKKEDELGDRSIMFTVQNED
B2: SEQ ID NO: 21 (SEQ ID NO: 89 plus C38S/C68N) (ligand)
chain: YFGKLESKLSVIRNLNDQVLFIDQGNRPLFEDMTDSDSRDNAPRTIFIISKYSDSLARGLAVTISVKNEKISTLSCENKIISFKEMNPPDNIKDTKSDIIFFQRDVPGHSRKMQFESSSYEGYFLACEKERDLFKLILKKEDELGDRSIMFTVQNED
B3: SEQ ID NO: 18 (SEQ ID NO: 89 plus C38S/C68V) (ligand)
chain: YFGKLESKLSVIRNLNDQVLFIDQGNRPLFEDMTDSDSRDNAPRTIFIISKYSDSLARGLAVTISVKVEKISTLSCENKIISFKEMNPPDNIKDTKSDIIFFQRDVPGHSRKMQFESSSYEGYFLACEKERDLFKLILKKEDELGDRSIMFTVQNED
B4: SEQ ID NO: 16 (SEQ ID NO: 89 plus C38S/C68G) (ligand)
chain: YFGKLESKLSVIRNLNDQVLFIDQGNRPLFEDMTDSDSRDNAPRTIFIISKYSDSLARGLAVTISVKGEKISTLSCENKIISFKEMNPPDNIKDTKSDIIFFQRDVPGHSRKMQFESSSYEGYFLACEKERDLFKLILKKEDELGDRSIMFTVQNED
B5: SEQ ID NO: 20 (SEQ ID NO: 89 plus C38S/C68E) (ligand)
chain: YFGKLESKLSVIRNLNDQVLFIDQGNRPLFEDMTDSDSRDNAPRTIFIISKYSDSLARGLAVTISVKEEKISTLSCENKIISFKEMNPPDNIKDTKSDIIFFQRDVPGHSRKMQFESSSYEGYFLACEKERDLFKLILKKEDELGDRSIMFTVQNED
B6: SEQ ID NO: 17 (SEQ ID NO: 89 plus C38S/C68A) (ligand)
chain: YFGKLESKLSVIRNLNDQVLFIDQGNRPLFEDMTDSDSRDNAPRTIFIISKYSDSLARGLAVTISVKAEKISTLSCENKIISFKEMNPPDNIKDTKSDIIFFQRDVPGHSRKMQFESSSYEGYFLACEKERDLFKLILKKEDELGDRSIMFTVQNED
B7: SEQ ID NO: 94 (human D2D IL-18 variant hD2D-5F10) (ligand)
chain: HFGKLESKLSVIRNLNGQVLFIDQGNRPLFADMEASPCRDNAPRTIFIISFYKDSQPRGLAVTISVKCEKISTLSCENKIISFKEMNPPDNIKDTKSDIIFFLRSVPGHDNKMQFESSSYEGYFLACEKERDLFKLILKKEDELGDRSIMFTVQNED
notes: Engineered decoy-to-the-decoy variant
B8: SEQ ID NO: 124 (human D2D IL-18 consensus hD2D-CS2) (ligand)
chain: YFGKLESKLSVIRNLNGQVLFIDQGNRPLFADMTSSDCRDNAPRTIFIISFYKDSQPRGMAVTISVKCEKISTLSCENKIISFKEMNPPDNIKDTKSDIIFFLRSVPGHDNKMQFESSSYEGYFLACEKERDLFKLILKKEDELGDRSIMFTVQNED
notes: as for B7
B9: SEQ ID NO: 125 (human D2D IL-18 consensus hD2D-CS3) (ligand)
chain: YFGKLESKLSVIRNLNGQVLFIDQGNRPLFADMESSDCRDNAPRTIFIISFYKDSQPRGLAVTISVKCEKISTLSCENKIISFKEMNPPDNIKDTKSDIIFFLRSVPGHDNKMQFESSSYEGYFLACEKERDLFKLILKKEDELGDRSIMFTVQNED
notes: as for B7
B10: SEQ ID NO: 99 (human D2D IL-18 variant hD2D-5F01) (ligand)
chain: HFGKLESKLSVIRNLNGQVLFIDQGNRPLFTDMTSSDCRDKAPRTIFIISFYKDSQPRGLAVTISVKCEKISTLSCENKIISFKEMNPPDNIKDTKSDIIFFLRSVPGPDNKFQFESSSYEGYFLACEKERDLFKLILKKEDELGDRSIMFTVQNED
notes: as for B7
B11: SEQ ID NO: 101 (human D2D IL-18 variant hD2D-5E08) (ligand)
chain: YFGKLESKLSVIRNLNGQVLFIDQGNRPLFTDMTASPCRDNAPRTIFIISFYKDSQPRGLAVTISVKCEKISTLSCENKIISFKEMNPPDNIKDTKSDIIFFLRSVPGHDNKIQFESSSYEGYFLACEKERSLFKLILKKEDELGDRSIMFTVQNED
notes: as for B7
B12: SEQ ID NO: 120 (human D2D IL-18 variant hD2D-5B02) (ligand)
chain: YFGKLESKLSVIRNLNGQVLFIDQGNRPLFADMTSKRCRDNAPRTIFIISLYKDSQPRGFAVTISVKCEKISTLSCENKIISFKEMNPPDNIKDTKSDIIFFIRSVPGHDNKIQFESSSYEGYFLACEKERDLFKLILKKEDELGDRSIMFTVQNED
notes: as for B7
B13: SEQ ID NO: 123 (human D2D IL-18 consensus hD2D-CS1) (ligand)
chain: YFGKLESKLSVIRNLNGQVLFIDQGNRPLFADMTDSDCRDNAPRTIFIISMYKDSQPRGMAVTISVKCEKISTLSCENKIISFKEMNPPDNIKDTKSDIIFFLRSVPGHDNKMQFESSSYEGYFLACEKERDLFKLILKKEDELGDRSIMFTVQNED
notes: as for B7
B14: SEQ ID NO: 98 (human D2D IL-18 variant hD2D-5F02) (ligand)
chain: HFGKLESKLSVIRNLNGQVLFIDQGNRPLFGDMEASPCRDNAPRTIFIISFYKDSQPRGMAVTISVKCEKISTLSCENKIISFKEMNPPDNIKDTKSDIIFFIRSVPGADNKLQFESSSYEGYFLACEKERDLFKLILKKEDELGDRSIMFTVQNED
notes: as for B7

The Kd is a measure of binding affinity in units of concentration. Low readings indicate tighter binding, high ones weaker binding.

The target of one assay is T1, IL-18 receptor (IL-18Rα / IL-18Rβ …). The assay is described as follows: cell-based or functional assay.
As to B1, the “EC50-#1 (M), HEK-Blue reporter” value was 1.96e-10 M and the “EC50-#2 (M), HEK-Blue reporter” value was determined as 1.3e-10 M.

Consider B2, for which the “EC50-#1 (M), HEK-Blue reporter” value was 1.28e-10 M and the “EC50-#2 (M), HEK-Blue reporter” value turned out to be 1.24e-10 M.

As for B3, the “EC50-#1 (M), HEK-Blue reporter” value turned out to be 5.19e-11 M and the “EC50-#2 (M), HEK-Blue reporter” value came out at 4.48e-11 M.

Consider B4, for which the “EC50-#1 (M), HEK-Blue reporter” value worked out at 2.05e-10 M and the “EC50-#2 (M), HEK-Blue reporter” value was 1.54e-10 M.

For B5, the “EC50-#1 (M), HEK-Blue reporter” value worked out at 1.35e-10 M and the “EC50-#2 (M), HEK-Blue reporter” value was 1.62e-10 M.

Regarding B6, the “EC50-#1 (M), HEK-Blue reporter” value stood at 1.41e-10 M and the “EC50-#2 (M), HEK-Blue reporter” value came to 1.09e-10 M.

The target of another assay is T2, Human IL-18BP (amino acids 31-194), …. The assay is described as follows: on-yeast binding isotherm (flow cytometry), drawn summary table, column IL18BP (KD). On the technique in general: In flow cytometry, cells or beads pass a laser one at a time.
Take B7: the dissociation constant (Kd) was found to be 6.4 nM.

In turn, B8 registered a Kd of 7.9 nM.

The molecule B9 showed a Kd of 8.9 nM.

B10 registered a Kd of 4.8 nM.

Turning to B11, the Kd was found to be 8.8 nM.

With B12, the affinity, expressed as Kd, was 4.2 nM.

The molecule B13 returned a Kd of 5.9 nM.

B14 had a dissociation constant Kd of 5.4 nM.
